Columns and labels:
6His-PUX13 = target: T1, 6His-PUX13 (Arabidopsis thaliana, UniProt Q9C5G7 1-525); experiment: ITC
T1 sequence (looked up): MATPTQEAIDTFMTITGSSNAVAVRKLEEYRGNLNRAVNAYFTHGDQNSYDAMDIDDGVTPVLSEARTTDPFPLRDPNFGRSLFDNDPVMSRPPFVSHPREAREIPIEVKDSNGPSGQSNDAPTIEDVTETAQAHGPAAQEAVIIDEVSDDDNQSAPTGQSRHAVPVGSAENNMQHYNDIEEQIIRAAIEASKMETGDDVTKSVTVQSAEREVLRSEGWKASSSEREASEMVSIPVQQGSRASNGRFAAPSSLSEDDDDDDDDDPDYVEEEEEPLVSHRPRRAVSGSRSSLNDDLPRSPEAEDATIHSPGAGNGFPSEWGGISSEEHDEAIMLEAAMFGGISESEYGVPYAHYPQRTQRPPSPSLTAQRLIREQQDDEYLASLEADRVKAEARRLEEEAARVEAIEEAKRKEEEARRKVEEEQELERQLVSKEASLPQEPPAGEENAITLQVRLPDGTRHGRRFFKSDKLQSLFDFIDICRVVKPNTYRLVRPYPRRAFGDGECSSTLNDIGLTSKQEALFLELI

6His-PUX8 = target: T2, 6His-PUX8 (Arabidopsis thaliana, UniProt F4JPR7 1-564); experiment: ITC
T2 sequence (looked up): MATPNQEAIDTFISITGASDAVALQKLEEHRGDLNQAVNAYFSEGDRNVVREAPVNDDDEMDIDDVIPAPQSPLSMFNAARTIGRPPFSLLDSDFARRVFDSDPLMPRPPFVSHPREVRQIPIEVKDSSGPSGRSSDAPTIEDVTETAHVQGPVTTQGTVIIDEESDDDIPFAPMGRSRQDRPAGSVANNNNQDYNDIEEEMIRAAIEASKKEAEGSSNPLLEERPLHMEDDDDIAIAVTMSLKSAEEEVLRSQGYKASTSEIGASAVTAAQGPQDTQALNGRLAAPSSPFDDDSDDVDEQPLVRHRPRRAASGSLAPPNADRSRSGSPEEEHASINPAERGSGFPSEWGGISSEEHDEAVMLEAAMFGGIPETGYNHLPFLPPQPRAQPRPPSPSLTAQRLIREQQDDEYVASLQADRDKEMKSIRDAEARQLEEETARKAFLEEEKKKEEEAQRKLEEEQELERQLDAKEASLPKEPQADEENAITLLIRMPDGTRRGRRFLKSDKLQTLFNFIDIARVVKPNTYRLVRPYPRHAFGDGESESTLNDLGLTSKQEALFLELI

6His-PUX7 = target: T3, 6His-PUX7 (Arabidopsis thaliana, UniProt Q94JZ8 1-468); experiment: ITC
T3 sequence (looked up): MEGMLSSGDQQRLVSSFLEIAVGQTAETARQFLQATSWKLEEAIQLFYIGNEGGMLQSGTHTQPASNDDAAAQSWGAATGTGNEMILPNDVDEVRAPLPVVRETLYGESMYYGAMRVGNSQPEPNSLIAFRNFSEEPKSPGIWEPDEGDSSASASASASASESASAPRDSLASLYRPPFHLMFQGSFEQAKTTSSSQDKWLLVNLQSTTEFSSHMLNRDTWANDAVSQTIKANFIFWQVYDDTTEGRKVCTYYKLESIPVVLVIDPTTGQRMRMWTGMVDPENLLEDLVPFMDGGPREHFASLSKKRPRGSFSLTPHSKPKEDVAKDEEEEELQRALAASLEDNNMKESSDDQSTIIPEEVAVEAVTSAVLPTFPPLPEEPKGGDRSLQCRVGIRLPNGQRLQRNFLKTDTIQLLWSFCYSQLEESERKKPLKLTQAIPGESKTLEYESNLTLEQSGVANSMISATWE

6His-PUX9 = target: T4, 6His-PUX9 (Arabidopsis thaliana, UniProt Q4V3D3 1-469); experiment: ITC
T4 sequence (looked up): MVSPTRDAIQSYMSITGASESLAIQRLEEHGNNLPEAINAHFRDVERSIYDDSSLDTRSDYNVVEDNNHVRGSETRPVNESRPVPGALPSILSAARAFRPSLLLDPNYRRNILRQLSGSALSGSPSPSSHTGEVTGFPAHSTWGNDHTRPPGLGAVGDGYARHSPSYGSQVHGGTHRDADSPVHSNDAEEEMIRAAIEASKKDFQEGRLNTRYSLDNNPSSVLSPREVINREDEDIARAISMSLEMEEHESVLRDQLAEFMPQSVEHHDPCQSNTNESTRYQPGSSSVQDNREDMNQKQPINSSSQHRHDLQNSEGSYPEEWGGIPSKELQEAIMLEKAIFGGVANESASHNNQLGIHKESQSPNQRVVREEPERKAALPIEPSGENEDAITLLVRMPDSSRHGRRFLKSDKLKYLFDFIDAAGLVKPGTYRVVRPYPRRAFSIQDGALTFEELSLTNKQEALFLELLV

[1] = target: T5, Arabidopsis DSK2a (pull-down of Figure S1E) (Arabidopsis thaliana, UniProt Q9SII9 1-538); experiment: pull-down
T5 sequence (looked up): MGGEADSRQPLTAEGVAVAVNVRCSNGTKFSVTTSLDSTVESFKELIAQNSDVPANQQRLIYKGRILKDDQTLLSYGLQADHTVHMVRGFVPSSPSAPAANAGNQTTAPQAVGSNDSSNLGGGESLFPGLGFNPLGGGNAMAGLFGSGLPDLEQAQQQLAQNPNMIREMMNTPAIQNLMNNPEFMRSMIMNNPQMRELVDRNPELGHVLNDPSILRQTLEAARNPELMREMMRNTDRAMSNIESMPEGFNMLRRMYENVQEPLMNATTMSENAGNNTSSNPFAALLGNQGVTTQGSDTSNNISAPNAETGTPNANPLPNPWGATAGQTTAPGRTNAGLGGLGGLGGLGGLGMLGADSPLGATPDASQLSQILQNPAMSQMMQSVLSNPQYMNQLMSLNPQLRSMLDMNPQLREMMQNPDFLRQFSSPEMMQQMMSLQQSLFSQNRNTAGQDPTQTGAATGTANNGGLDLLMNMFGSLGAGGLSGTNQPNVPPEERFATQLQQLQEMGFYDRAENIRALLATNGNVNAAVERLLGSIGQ

GST-PUX7 = target: T6, GST-PUX7 (Arabidopsis thaliana, UniProt Q94JZ8 1-468); experiment: pull-down
T6 sequence (looked up): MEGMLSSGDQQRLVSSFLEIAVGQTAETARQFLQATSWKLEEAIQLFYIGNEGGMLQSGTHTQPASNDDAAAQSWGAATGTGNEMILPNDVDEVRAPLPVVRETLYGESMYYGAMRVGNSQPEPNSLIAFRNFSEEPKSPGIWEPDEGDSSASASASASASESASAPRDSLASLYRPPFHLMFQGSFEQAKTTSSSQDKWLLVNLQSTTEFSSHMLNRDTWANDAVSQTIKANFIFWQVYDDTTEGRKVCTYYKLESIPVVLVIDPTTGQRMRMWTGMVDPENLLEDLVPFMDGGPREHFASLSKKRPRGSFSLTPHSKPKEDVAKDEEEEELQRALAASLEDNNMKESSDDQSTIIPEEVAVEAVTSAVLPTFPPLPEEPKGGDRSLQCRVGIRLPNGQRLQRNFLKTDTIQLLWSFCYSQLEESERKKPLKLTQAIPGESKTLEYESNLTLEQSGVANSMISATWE

GST-PUX9 = target: T7, GST-PUX9 (Arabidopsis thaliana, UniProt Q4V3D3 1-469); experiment: pull-down
T7 sequence (looked up): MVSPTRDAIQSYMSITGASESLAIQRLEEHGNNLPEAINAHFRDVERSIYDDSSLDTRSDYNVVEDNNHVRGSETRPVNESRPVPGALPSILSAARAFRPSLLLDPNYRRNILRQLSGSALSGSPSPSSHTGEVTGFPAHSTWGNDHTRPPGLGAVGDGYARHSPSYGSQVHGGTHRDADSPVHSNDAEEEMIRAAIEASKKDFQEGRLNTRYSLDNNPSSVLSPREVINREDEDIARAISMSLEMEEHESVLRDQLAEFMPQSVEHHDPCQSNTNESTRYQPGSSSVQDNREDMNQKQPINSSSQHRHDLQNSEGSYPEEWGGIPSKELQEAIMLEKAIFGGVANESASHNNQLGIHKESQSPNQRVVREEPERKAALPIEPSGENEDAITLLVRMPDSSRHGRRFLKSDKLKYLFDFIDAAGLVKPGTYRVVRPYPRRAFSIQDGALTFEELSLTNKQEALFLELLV

GST-PUX13 = target: T8, GST-PUX13 (Arabidopsis thaliana, UniProt Q9C5G7 1-525); experiment: pull-down
T8 sequence (looked up): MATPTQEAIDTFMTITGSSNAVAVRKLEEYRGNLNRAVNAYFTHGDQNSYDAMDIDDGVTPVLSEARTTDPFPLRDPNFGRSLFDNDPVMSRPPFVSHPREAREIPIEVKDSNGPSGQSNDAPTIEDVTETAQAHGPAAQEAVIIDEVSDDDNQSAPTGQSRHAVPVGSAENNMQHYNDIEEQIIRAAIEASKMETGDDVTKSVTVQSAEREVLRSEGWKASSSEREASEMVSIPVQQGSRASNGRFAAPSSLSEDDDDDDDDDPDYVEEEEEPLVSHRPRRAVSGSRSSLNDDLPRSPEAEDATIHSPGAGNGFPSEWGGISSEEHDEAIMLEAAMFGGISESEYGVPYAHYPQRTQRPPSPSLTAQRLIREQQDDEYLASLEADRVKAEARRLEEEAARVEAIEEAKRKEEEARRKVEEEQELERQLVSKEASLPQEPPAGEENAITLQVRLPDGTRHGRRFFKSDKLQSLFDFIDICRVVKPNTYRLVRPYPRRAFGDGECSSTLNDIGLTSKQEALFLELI

GST-PUX8 = target: T9, GST-PUX8 (Arabidopsis thaliana, UniProt F4JPR7 1-564); experiment: pull-down
T9 sequence (looked up): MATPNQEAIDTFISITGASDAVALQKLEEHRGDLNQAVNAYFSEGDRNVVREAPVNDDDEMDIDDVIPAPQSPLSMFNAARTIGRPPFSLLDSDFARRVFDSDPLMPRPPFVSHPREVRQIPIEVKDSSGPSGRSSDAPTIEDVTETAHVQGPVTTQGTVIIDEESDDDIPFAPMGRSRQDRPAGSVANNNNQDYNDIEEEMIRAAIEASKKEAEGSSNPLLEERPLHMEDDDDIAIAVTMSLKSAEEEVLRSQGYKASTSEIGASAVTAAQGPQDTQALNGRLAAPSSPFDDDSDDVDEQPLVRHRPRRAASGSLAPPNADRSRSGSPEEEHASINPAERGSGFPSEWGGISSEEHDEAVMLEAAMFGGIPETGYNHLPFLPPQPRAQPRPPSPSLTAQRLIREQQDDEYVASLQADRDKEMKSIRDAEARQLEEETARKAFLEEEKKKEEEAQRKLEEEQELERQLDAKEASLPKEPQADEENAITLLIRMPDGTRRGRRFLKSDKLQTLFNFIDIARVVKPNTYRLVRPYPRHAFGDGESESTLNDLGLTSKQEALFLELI

[2] = target: T10, GST-RPN10 (amino acids 201 to 386) (Arabidopsis thaliana, UniProt P55034 201-386); experiment: pull-down
T10 sequence (looked up): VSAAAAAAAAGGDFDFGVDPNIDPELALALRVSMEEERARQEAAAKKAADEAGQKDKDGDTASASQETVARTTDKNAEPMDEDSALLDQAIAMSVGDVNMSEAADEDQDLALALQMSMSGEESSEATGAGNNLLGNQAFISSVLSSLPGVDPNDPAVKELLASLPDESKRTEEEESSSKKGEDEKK

HA-DSK2a = target: T11, HA-DSK2a (Arabidopsis thaliana, UniProt Q9SII9 1-538); experiment: pull-down
T11 sequence (looked up): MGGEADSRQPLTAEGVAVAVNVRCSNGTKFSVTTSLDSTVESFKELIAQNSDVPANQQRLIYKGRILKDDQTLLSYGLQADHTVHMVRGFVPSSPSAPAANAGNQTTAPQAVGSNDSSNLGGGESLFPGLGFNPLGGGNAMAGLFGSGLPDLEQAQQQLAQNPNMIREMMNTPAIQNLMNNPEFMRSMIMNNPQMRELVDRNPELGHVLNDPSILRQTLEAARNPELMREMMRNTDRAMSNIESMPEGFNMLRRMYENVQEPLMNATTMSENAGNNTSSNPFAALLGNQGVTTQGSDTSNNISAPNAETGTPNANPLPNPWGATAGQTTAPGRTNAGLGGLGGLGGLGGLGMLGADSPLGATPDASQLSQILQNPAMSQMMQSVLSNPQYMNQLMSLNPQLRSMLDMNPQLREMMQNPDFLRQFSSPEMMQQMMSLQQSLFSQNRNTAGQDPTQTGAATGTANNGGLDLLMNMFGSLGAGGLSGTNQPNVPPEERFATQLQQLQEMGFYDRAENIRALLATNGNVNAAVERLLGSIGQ

GST-Ubx5 = target: T12, GST-Ubx5 (S. cerevisiae, UniProt Q06682 1-500); experiment: pull-down
T12 sequence (looked up): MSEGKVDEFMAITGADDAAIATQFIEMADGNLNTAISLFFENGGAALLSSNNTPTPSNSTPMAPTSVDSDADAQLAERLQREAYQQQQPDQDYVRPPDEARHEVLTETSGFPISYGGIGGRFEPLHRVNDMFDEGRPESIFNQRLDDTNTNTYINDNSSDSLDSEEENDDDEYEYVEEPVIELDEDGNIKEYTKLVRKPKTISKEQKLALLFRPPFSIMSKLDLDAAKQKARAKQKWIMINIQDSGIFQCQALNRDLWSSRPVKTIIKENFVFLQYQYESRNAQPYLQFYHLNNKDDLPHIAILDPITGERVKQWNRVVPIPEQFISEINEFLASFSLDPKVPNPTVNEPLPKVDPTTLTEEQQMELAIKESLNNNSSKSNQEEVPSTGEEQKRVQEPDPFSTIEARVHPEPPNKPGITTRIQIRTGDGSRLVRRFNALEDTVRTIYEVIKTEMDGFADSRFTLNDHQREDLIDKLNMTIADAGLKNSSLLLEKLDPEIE

Measured: binding result

B1: 6His-ATG8e (natural protein, Arabidopsis thaliana, UniProt Q8S926 1-118, looked up)
chain: MNKGSIFKMDNDFEKRKAEAGRIREKYPDRIPVIVEKAEKSEVPNIDKKKYLVPSDLTVGQFVYVIRKRIKLSAEKAIFIFVDNVLPPTGELMSSVYEDKKDEDGFLYITYSGENTFG
binds: 6His-PUX13 | 6His-PUX8 | 6His-PUX7 | 6His-PUX9 | [1] | GST-PUX7 | GST-PUX9 | GST-PUX13 | GST-PUX8 | [2] | HA-DSK2a

B2: 6His-Atg8 (yeast) (natural protein, S. cerevisiae, UniProt P38182 1-116, looked up)
chain: MKSTFKSEYPFEKRKAESERIADRFKNRIPVICEKAEKSDIPEIDKRKYLVPADLTVGQFVYVIRKRIMLPPEKAIFIFVNDTLPPTAALMSAIYQEHKDKDGFLYVTYSGENTFG
binds: GST-Ubx5

— paper PMC6810650 (Cell, 2019)
